# Source: patent publication US20120165267A1 (Genentech, published 2012)
# T1: DcR2-IgG (UniProt Q9UBN6 56-211)
# T1 sequence (Q9UBN6 whole entry, species assumed, looked up): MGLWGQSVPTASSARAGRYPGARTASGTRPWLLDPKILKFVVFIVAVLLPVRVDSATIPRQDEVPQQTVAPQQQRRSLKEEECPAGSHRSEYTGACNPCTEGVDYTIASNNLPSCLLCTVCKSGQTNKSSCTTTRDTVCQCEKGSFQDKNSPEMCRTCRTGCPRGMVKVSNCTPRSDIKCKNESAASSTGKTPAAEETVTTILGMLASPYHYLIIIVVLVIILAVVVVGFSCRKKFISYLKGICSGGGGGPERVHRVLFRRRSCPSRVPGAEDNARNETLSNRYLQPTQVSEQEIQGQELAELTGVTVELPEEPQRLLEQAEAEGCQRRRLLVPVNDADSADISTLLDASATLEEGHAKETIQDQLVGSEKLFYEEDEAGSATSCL
# T2: DcR1 receptor-IgG (UniProt O14798 26-236)
# T2 construct: Captured as receptor-IgG on Protein A beads; construct not described
# T2 sequence (O14798 whole entry, species assumed, looked up): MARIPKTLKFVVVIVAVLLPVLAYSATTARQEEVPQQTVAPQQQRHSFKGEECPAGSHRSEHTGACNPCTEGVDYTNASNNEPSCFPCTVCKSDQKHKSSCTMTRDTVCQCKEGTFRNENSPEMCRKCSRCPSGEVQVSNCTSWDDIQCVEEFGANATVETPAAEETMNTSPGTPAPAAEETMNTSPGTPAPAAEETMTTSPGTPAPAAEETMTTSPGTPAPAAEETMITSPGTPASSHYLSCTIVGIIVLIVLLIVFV
# B1: DR4-selective phage clone 11 (ligand)
# chain: SEETISTVQEKQQNISPLVRERGPQRVAAHITGTRGRSNTLSSPNSKNEKALGRKINSWESSRSGHSFLSNLHLRNGELVIHEKGFYYIYSQTAFRFSEEIKEGTSNDKQMVQYIYKWTDYPDPILLMKSARNSCWSKDAEYGLYSIYQGGIFELKENDRIFVSVTNEHLIDMDHEASFFGAFLVG
# notes: also called DR4-11
# B2: DR4-selective phage clone 13 (ligand)
# chain: SEETISTVQEKQQNISPLVRERGPQRVAAHITGTRGRSNTLSSPNSKNEKALGRKINSWESSRSGHSFLSNLHLRNGELVIHEKGFYYIYSQTAFRFKEEIKEGTGNDKQMVQYIYKWTDYPDPILLMKSARNSCWSKDAEYGLYSIYQGGIFELKENDRIFVSVTNEHLIDMDHEASFFGAFLVG
# notes: also called DR4-13
# B3: Apo2L.DR5-8 (ligand)
# chain: VRERGPQRVAAHITGTRGRSNTLSSPNSKNEKALGRKINSWESSRSGHSFLSNLHLRNGELVIHEKGFYYIYSQTQFKFREEIKENTKNDKQMVQYIYKYTSYPDPILLMKSARNSCWSKDAEYGLYSIYQGGIFELKENDRIFVSVTNERLLQMDHEASFFGAFLVG
# notes: also called Apo2L/TRAIL.DR5-8
# B4: Apo2L.DR5-8B (ligand)
# chain: VRERGPQRVAAHITGTRGRSNTLSSPNSKNEKALGRKINSWESSRSGHSFLSNLHLRNGELVIHEKGFYYIYSQTQFKFREEIKENTKNDKQMVQYIYKYTSYPDPILLMKSARNSCWSKDAEYGLYSIYQGGIFELKENDRIFVSVTNEHLIDMDHEASFFGAFLVG
# notes: Subcloned into pAPOK5.0 (114-281 form)
# B5: Apo2L.DR5-8C (ligand)
# chain: VRERGPQRVAAHITGTRGRSNTLSSPNSKNEKALGRKINSWESSRSGHSFLSNLHLRNGELVIHEKGFYYIYSQTQFKFREEIKENTKNDKQMVQYIYKYTSYPDPILLMKSARNSCWSKDAEYGLYSIYQGGIFELKENDRIFVSVTNEHLLDMDHEASFFGAFLVG
# notes: as for B4
# B6: Apo2L/TRAIL(114-281) mutant DR5-4 (ligand)
# chain: VRERGPQRVAAHITGTRGRSNTLSSPNSKNEKALGRKINSWESSRSGHSFLSNLHLRNGELVIHEKGFYYIYSQTAFRFREEIKENTKNDKQMVQYIYKYTSYPDPILLMKSARNSCWSKDAEYGLYSIYQGGIFELKENDRIFVSVTNEQLLDMNHEASFFGAFLVG
# notes: Untagged, from pAPOK5.0
# B7: Apo2L/TRAIL(114-281) mutant DR5-5 (ligand)
# chain: VRERGPQRVAAHITGTRGRSNTLSSPNSKNEKALGRKINSWESSRSGHSFLSNLHLRNGELVIHEKGFYYIYSQTSFRFTEEIKENTKNDKQMVQYIYKYTSYPDPILLMKSARNSCWSKDAEYGLYSIYQGGIFELKENDRIFVSVTNEGLLDMNHEASFFGAFLVG
# notes: Untagged, from pAPOK5.0
# B8: Apo2L/TRAIL(114-281) mutant DR5-11 (ligand)
# chain: VRERGPQRVAAHITGTRGRSNTLSSPNSKNEKALGRKINSWESSRSGHSFLSNLHLRNGELVIHEKGFYYIYSQTAFRFKEEIKENTKNDKQMVQYIYKYTSYPDPILLMKSARNSCWSKDAEYGLYSIYQGGIFELKENDRIFVSVTNEGLVDMSHEASFFGAFLVG
# notes: Untagged, from pAPOK5.0
# B9: Apo2L/TRAIL(114-281) mutant DR5-21 (ligand)
# chain: VRERGPQRVAAHITGTRGRSNTLSSPNSKNEKALGRKINSWESSRSGHSFLSNLHLRNGELVIHEKGFYYIYSQTAFKFKEEIKENTKNDKQMVQYIYKYTSYPDPILLMKSARNSCWSKDAEYGLYSIYQGGIFELKENDRIFVSVTNEDLLNMEHEASFFGAFLVG
# notes: Untagged, from pAPOK5.0; h-0007 lists D267Q
# B10: Apo2L/TRAIL(114-281) mutant DR5-23 (ligand)
# chain: VRERGPQRVAAHITGTRGRSNTLSSPNSKNEKALGRKINSWESSRSGHSFLSNLHLRNGELVIHEKGFYYIYSQTAFKFREEIKENTKNDKQMVQYIYKYTSYPDPILLMKSARNSCWSKDAEYGLYSIYQGGIFELKENDRIFVSVTNESLLDMEHEASFFGAFLVG
# notes: Untagged, from pAPOK5.0
# B11: Flag.Apo2L.DR4-8 (ligand)
# chain: VRERGPQRVAAHITGTRGRSNTLSSPNSKNEKALGRKINSWESSRSGHSFLSNLHLRNGELVIHEKGFYYIYSQTAFRFSEEIKEVTRNDKQMVQYIYKWTDYPDPILLMKSARNSCWSKDAEYGLYSIYQGGIFELKENDRIFVSVTNEHLIDMDHEASFFGAFLVG
# notes: not shown: N-terminal flag tag from pFLAG-MAC
# B12: Flag.Apo2L.DR4-9 (ligand)
# chain: VRERGPQRVAAHITGTRGRSNTLSSPNSKNEKALGRKINSWESSRSGHSFLSNLHLRNGELVIHEKGFYYIYSQTAFRFSEEIKERTRNDKQMVQYIYKWTDYPDPILLMKSARNSCWSKDAEYGLYSIYQGGIFELKENDRIFVSVTNEHLIDMDHEASFFGAFLVG
# notes: as for B11
# B13: Flag.Apo2L.DR5-1 (ligand)
# chain: VRERGPQRVAAHITGTRGRSNTLSSPNSKNEKALGRKINSWESSRSGHSFLSNLHLRNGELVIHEKGFYYIYSQTAFKFKEEIKENTKNDKQMVQYIYKYTSYPDPILLMKSARNSCWSKDAEYGLYSIYQGGIFELKENDRIFVSVTNEALIDMDHEASFFGAFLVG
# notes: as for B11
# B14: Flag.Apo2L.DR5-2 (ligand)
# chain: VRERGPQRVAAHITGTRGRSNTLSSPNSKNEKALGRKINSWESSRSGHSFLSNLHLRNGELVIHEKGFYYIYSQTAFKFKEEIKENTKNDKQMVQYIYKYTSYPDPILLMKSARNSCWSKDAEYGLYSIYQGGIFELKENDRIFVSVTNEHLIDMDHEASFFGAFLVG
# notes: as for B11
# B15: Flag.Apo2L.DR5-8 (ligand)
# chain: VRERGPQRVAAHITGTRGRSNTLSSPNSKNEKALGRKINSWESSRSGHSFLSNLHLRNGELVIHEKGFYYIYSQTQFKFREEIKENTKNDKQMVQYIYKYTSYPDPILLMKSARNSCWSKDAEYGLYSIYQGGIFELKENDRIFVSVTNERLLQMDHEASFFGAFLVG
# notes: also called Flag-Apo21.DR5-8; not shown: N-terminal flag tag from pFLAG-MAC
# B16: Flag.Apo2L.DR5-21 (ligand)
# chain: VRERGPQRVAAHITGTRGRSNTLSSPNSKNEKALGRKINSWESSRSGHSFLSNLHLRNGELVIHEKGFYYIYSQTAFKFKEEIKENTKNDKQMVQYIYKYTSYPDPILLMKSARNSCWSKDAEYGLYSIYQGGIFELKENDRIFVSVTNEDLLNMEHEASFFGAFLVG
# notes: as for B11
# B17: Flag.Apo2L.DR5-23 (ligand)
# chain: VRERGPQRVAAHITGTRGRSNTLSSPNSKNEKALGRKINSWESSRSGHSFLSNLHLRNGELVIHEKGFYYIYSQTAFKFREEIKENTKNDKQMVQYIYKYTSYPDPILLMKSARNSCWSKDAEYGLYSIYQGGIFELKENDRIFVSVTNESLLDMEHEASFFGAFLVG
# notes: as for B11
# Legend:
# BSA = target: T3, BSA (UniProt P02769 25-607); assay: spot ELISA, phage on coated protein
# T3 construct: Control protein of the spot ELISA
# DR5-IgG [1] = target: T4, DR5-IgG (human, UniProt O14763 56-184); assay: competition phage ELISA: phage clone on wells coated with DR4-IgG, competed by rising soluble DR5-IgG, bound phage detected with anti-M13 antibody-HRP, A450
# T4 construct: also called Apo-2-IgG; not shown: IgG part; prepared as in WO98/51793, not described here
# Procedure: Relative binding strengths for 4 of the clones from the DR4 library were determined by competition phage ELISA (FIGS. 15 and 16). In this assay, a fixed concentration of phage is added to wells coated with receptor-IgG in the presence of an increasing concentration of receptor-IgG in solution. After incubation to allow binding and washing to remove unbound phage, the bound phage is determined with the HRP-coupled, anti-M13 antibody (Pharmacia). Analysis of the ELISA signal as a function of receptor-IgG concentration in solution by using a 4-parameter fit yields the IC50 value. Since the IC50 value will vary with phage concentration, the phage clones were first titered to determine the dilution giving equal signal strength for the 4 clones.
# DR5-IgG [2] = target: T4, DR5-IgG; assay: BIAcore, immobilized receptor-IgG
# DR5-IgG [3] = target: T4, DR5-IgG; assay: BIAcore, immobilized receptor-IgG; against wild-type Apo2L/TRAIL(114-281)
# Procedure: (§1) Briefly, dissociation constants (Kd) for binding of Apo-2L variants (see Tables II and III) to immobilized receptor immunoadhesins were determined from surface plasmon resonance (SPR) measurements on a Pharmacia BIAcore 3000. DR5-IgG (also referred to as Apo-2-IgG) and DcR2-IgG receptor immunoadhesins were prepared as described in WO98/51793 published Nov. 19, 1998 and WO99/10484 published Mar. 9, 1999, respectively. DR4-IgG was prepared as follows. […] Sensorgrams were recorded for Apo-2L binding at concentrations ranging from 15.6 nM to 500 nM in 2-fold increments. The kinetics constants were determined by non-linear regression analysis and used to calculate the binding constants.
# KD values determined by BIAcore analysis are reported relative to the value calculated for the wild-type protein. Apoptosis-induction is evaluated from the ED₅₀ value (ng/mL) in the presence and absence of 2 μg/mL M2 antibody (Sigma).
# DR5-IgG [4] = target: T4, DR5-IgG; assay: BIAcore; against Flag.Apo2L.WT
# Procedure: as §1
# DcR2-IgG = target: T1, DcR2-IgG; assay: AlphaQuest (CARB-AQ) displacement of biotinylated Apo2L/TRAIL from receptor-IgG; against Flag-Apo2L.WT
# DcR1 receptor-IgG = target: T2, DcR1 receptor-IgG; assay: as above
# DR5-IgG [5] = target: T4, DR5-IgG; assay: as above
binder,measurement,setting,value
B1,binding result,BSA,no binding
same,binding result,DR5-IgG [1],no binding (tested: 1000 nM)
B2,binding result,BSA,no binding
same,binding result,DR5-IgG [1],no binding (tested: 1000 nM)
B3,DR5-binding (ratio relative to wild-type Apo2L),DR5-IgG [2],0.6 ratio
B4,DR5-binding (ratio relative to wild-type Apo2L),DR5-IgG [2],0.6 ratio
B5,DR5-binding (ratio relative to wild-type Apo2L),DR5-IgG [2],0.6 ratio
B6,KD ratio (mutant/wt),DR5-IgG [3],1.3 ratio
B7,KD ratio (mutant/wt),DR5-IgG [3],2.5 ratio
B8,KD ratio (mutant/wt),DR5-IgG [3],2.2 ratio
B9,KD ratio (mutant/wt),DR5-IgG [3],1.2 ratio
B10,KD ratio (mutant/wt),DR5-IgG [3],2.4 ratio
B11,DR5 KD (mut/wt),DR5-IgG [4],1100 ratio
same,IC50 ratio (mutant/wt),DcR2-IgG,15 ratio
same,IC50 ratio (mutant/wt),DcR1 receptor-IgG,5.5 ratio
B12,DR5 KD (mut/wt),DR5-IgG [4],1200 ratio
same,IC50 ratio (mutant/wt),DcR2-IgG,18 ratio
same,IC50 ratio (mutant/wt),DcR1 receptor-IgG,4 ratio
B13,DR5 KD (mut/wt),DR5-IgG [4],2.2 ratio
same,IC50 ratio (mutant/wt),DR5-IgG [5],2.4 ratio
same,IC50 ratio (mutant/wt),DcR2-IgG,32 ratio
B14,DR5 KD (mut/wt),DR5-IgG [4],1.9 ratio
same,IC50 ratio (mutant/wt),DR5-IgG [5],2.8 ratio
same,IC50 ratio (mutant/wt),DcR2-IgG,5 ratio
B15,DR5 KD (mut/wt),DR5-IgG [4],0.8 ratio
same,IC50 ratio (mutant/wt),DR5-IgG [5],0.7 ratio
B16,DR5 KD (mut/wt),DR5-IgG [4],1 ratio
same,IC50 ratio (mutant/wt),DR5-IgG [5],1.9 ratio
same,IC50 ratio (mutant/wt),DcR2-IgG,9.4 ratio
B17,DR5 KD (mut/wt),DR5-IgG [4],2.4 ratio
same,IC50 ratio (mutant/wt),DR5-IgG [5],2.3 ratio
same,IC50 ratio (mutant/wt),DcR2-IgG,24 ratio
